# Test results taken from IntAct's records for PubMed 15965644.
# B1: Hereditary hemochromatosis protein (Homo sapiens), Q30201 (parent)
# chain: MGPRARPALLLLMLLQTAVLQGRLLRSHSLHYLFMGASEQDLGLSLFEALGYVDDQLFVFYDHESRRVEPRTPWVSSRISSQMWLQLSQSLKGWDHMFTVDFWTIMENHNHSKESHTLQVILGCEMQEDNSTEGYWKYGYDGQDHLEFCPDTLDWRAAEPRAWPTKLEWERHKIRARQNRAYLERDCPAQLQQLLELGRGVLDQQVPPLVKVTHHVTSSVTTLRCRALNYYPQNITMKWLKDKQPMDAKEFEPKDVLPNGDGTYQGWITLAVPPGEEQRYTCQVEHPGLDQPLIVIWEPSPSGTLVIGVISGIAVFVVILFIGILFIILRKRQGSRGAMGHYVLAERE
# Variants of: B1
# Conditions: with b2mg_human B2M
row,Variant,effect of a mutation on the interaction
1,Q283P,disrupting interaction

# Variants of: B1
# Conditions: with tfr1_human TFRC
row,Variant,effect of a mutation on the interaction
1,Q283P,disrupting interaction
